# Numbered stars: 1 amine (or outer) side, 2 acyl side, 3 side chain; on linkers, the order of the positions; unused ones are H or OH. Square brackets hold non-standard residues; d marks the D form. hPhe(2,4-di-NO2) = 2,4-di-NO2 homophenylalanine, O=C([C@H](CCc1ccc([N+](=O)[O-])cc1[N+](=O)[O-])N[*:1])[*:2]; Tyr(BN,3-Cl) = tyrosine with benzyl (BN) and 3-Cl, O=C([C@H](Cc1ccc(OCc2ccccc2)c(Cl)c1)N[*:1])[*:2]; Phe(4-CH2SO3H) = N[C@@H](Cc1ccc(CS(=O)(=O)O)cc1)C(=O)O; Phe(4-NO2) = N[C@@H](Cc1ccc([N+](=O)[O-])cc1)C(=O)O; Trp(5-CN) = N#Cc1ccc2[nH]cc(C[C@H](N)C(=O)O)c2c1; Phe(4-COOH) = N[C@@H](Cc1ccc(C(=O)O)cc1)C(=O)O; Phe(4-CN) = N#Cc1ccc(C[C@H](N)C(=O)O)cc1; Phe(4-F) = N[C@@H](Cc1ccc(F)cc1)C(=O)O; Dmt = Cc1cc(O)cc(C)c1C[C@H](N)C(=O)O; hPhe = N[C@@H](CCc1ccccc1)C(=O)O; Dab = NCC[C@H](N)C(=O)O; Dap = NC[C@H](N)C(=O)O; Ahx = NCCCCCC(=O)O
# B1: VII-63-B (peptide)
# peptide: Ac-RY[Phe(4-NO2)]RWR-NH2
# SMILES: CC(=O)N[C@@H](CCCNC(=N)N)C(=O)N[C@@H](Cc1ccc(O)cc1)C(=O)N[C@@H](Cc1ccc([N+](=O)[O-])cc1)C(=O)N[C@@H](CCCNC(=N)N)C(=O)N[C@@H](Cc1c[nH]c2ccccc12)C(=O)N[C@@H](CCCNC(=N)N)C(N)=O
# notes: also called Ac-Arg-Tyr-Phe(4-NO2)-Arg-Trp-Arg-NH2
# B2: VII-35-C (peptide)
# peptide: Ac-R[Tyr(4-Me)]YRWR-NH2
# notes: also called Ac-Arg-Tyr(4-Me)-Tyr-Arg-Trp-Arg-NH2
# B3: VII-37-B (peptide)
# peptide: Ac-R[Tyr(4-Me)][Tyr(4-Me)]RWR-NH2
# notes: also called Ac-Arg-Tyr(4-Me)-Tyr(4-Me)-Arg-Trp-Arg-NH2
# B4: VII-57-C (peptide)
# peptide: Ac-RYYRW[Ahx]-NH2
# SMILES: CC(=O)N[C@@H](CCCNC(=N)N)C(=O)N[C@@H](Cc1ccc(O)cc1)C(=O)N[C@@H](Cc1ccc(O)cc1)C(=O)N[C@@H](CCCNC(=N)N)C(=O)N[C@@H](Cc1c[nH]c2ccccc12)C(=O)NCCCCCC(N)=O
# notes: also called Ac-Arg-Tyr-Tyr-Arg-Trp-ε-aminocaproyl-NH2
# B5: VII-33-B (peptide)
# peptide: Ac-R[Phe(4-F)][Phe(4-F)]RWR-NH2
# SMILES: CC(=O)N[C@@H](CCCNC(=N)N)C(=O)N[C@@H](Cc1ccc(F)cc1)C(=O)N[C@@H](Cc1ccc(F)cc1)C(=O)N[C@@H](CCCNC(=N)N)C(=O)N[C@@H](Cc1c[nH]c2ccccc12)C(=O)N[C@@H](CCCNC(=N)N)C(N)=O
# notes: also called VII-33-C; Ac-Arg-Phe(4-F)-Phe(4-F)-Arg-Trp-Arg-NH2
# B6: VII-75-B (peptide)
# peptide: Ac-RY[Phe(4-CH2SO3H)]RWR-NH2
# SMILES: CC(=O)N[C@@H](CCCNC(=N)N)C(=O)N[C@@H](Cc1ccc(O)cc1)C(=O)N[C@@H](Cc1ccc(CS(=O)(=O)O)cc1)C(=O)N[C@@H](CCCNC(=N)N)C(=O)N[C@@H](Cc1c[nH]c2ccccc12)C(=O)N[C@@H](CCCNC(=N)N)C(N)=O
# notes: also called Ac-Arg-Tyr-Phe(4-CH2SO3H)-Arg-Trp-Arg-NH2
# B7: VII-19-B (peptide)
# peptide: Ac-R[Phe(4-COOH)]YRWR-NH2
# SMILES: CC(=O)N[C@@H](CCCNC(=N)N)C(=O)N[C@@H](Cc1ccc(C(=O)O)cc1)C(=O)N[C@@H](Cc1ccc(O)cc1)C(=O)N[C@@H](CCCNC(=N)N)C(=O)N[C@@H](Cc1c[nH]c2ccccc12)C(=O)N[C@@H](CCCNC(=N)N)C(N)=O
# notes: also called Ac-Arg-Phe(4-COOH)-Tyr-Arg-Trp-Arg-NH2
# B8: VII-43-C (peptide)
# peptide: Ac-R[Phe(4-CN)]YRWR-NH2
# SMILES: CC(=O)N[C@@H](CCCNC(=N)N)C(=O)N[C@@H](Cc1ccc(C#N)cc1)C(=O)N[C@@H](Cc1ccc(O)cc1)C(=O)N[C@@H](CCCNC(=N)N)C(=O)N[C@@H](Cc1c[nH]c2ccccc12)C(=O)N[C@@H](CCCNC(=N)N)C(N)=O
# notes: also called Ac-Arg-Phe(4-CN)-Tyr-Arg-Trp-Arg-NH2
# B9: VII-61-B (peptide)
# peptide: Ac-RY[Phe(4-F)]RWR-NH2
# SMILES: CC(=O)N[C@@H](CCCNC(=N)N)C(=O)N[C@@H](Cc1ccc(O)cc1)C(=O)N[C@@H](Cc1ccc(F)cc1)C(=O)N[C@@H](CCCNC(=N)N)C(=O)N[C@@H](Cc1c[nH]c2ccccc12)C(=O)N[C@@H](CCCNC(=N)N)C(N)=O
# notes: also called Ac-Arg-Tyr-Phe(4-F)-Arg-Trp-Arg-NH2
# B10: VII-31-B (peptide)
# peptide: Ac-R[Phe(4-F)]YRWR-NH2
# SMILES: CC(=O)N[C@@H](CCCNC(=N)N)C(=O)N[C@@H](Cc1ccc(F)cc1)C(=O)N[C@@H](Cc1ccc(O)cc1)C(=O)N[C@@H](CCCNC(=N)N)C(=O)N[C@@H](Cc1c[nH]c2ccccc12)C(=O)N[C@@H](CCCNC(=N)N)C(N)=O
# notes: also called Ac-Arg-Phe(4-F)-Tyr-Arg-Trp-Arg-NH2
# B11: VII-73-A (peptide)
# peptide: Ac-RY[Dmt]RWR-NH2
# SMILES: CC(=O)N[C@@H](CCCNC(=N)N)C(=O)N[C@@H](Cc1ccc(O)cc1)C(=O)N[C@@H](Cc1c(C)cc(O)cc1C)C(=O)N[C@@H](CCCNC(=N)N)C(=O)N[C@@H](Cc1c[nH]c2ccccc12)C(=O)N[C@@H](CCCNC(=N)N)C(N)=O
# notes: also called Ac-Arg-Tyr-Tyr(2,6-di-Me)-Arg-Trp-Arg-NH2
# B12: VII-67-A (peptide)
# peptide: Ac-[Dab]YYRWR-NH2
# SMILES: CC(=O)N[C@@H](CCN)C(=O)N[C@@H](Cc1ccc(O)cc1)C(=O)N[C@@H](Cc1ccc(O)cc1)C(=O)N[C@@H](CCCNC(=N)N)C(=O)N[C@@H](Cc1c[nH]c2ccccc12)C(=O)N[C@@H](CCCNC(=N)N)C(N)=O
# notes: also called Ac-Dab-Tyr-Tyr-Arg-Trp-Arg-NH2
# B13: VII-51-A (peptide)
# peptide: Ac-RYYR[Trp(5-CN)]R-NH2
# SMILES: CC(=O)N[C@@H](CCCNC(=N)N)C(=O)N[C@@H](Cc1ccc(O)cc1)C(=O)N[C@@H](Cc1ccc(O)cc1)C(=O)N[C@@H](CCCNC(=N)N)C(=O)N[C@@H](Cc1c[nH]c2ccc(C#N)cc12)C(=O)N[C@@H](CCCNC(=N)N)C(N)=O
# notes: also called Ac-Arg-Tyr-Tyr-Arg-Trp(5-CN)-Arg-NH2
# B14: VII-23-B (peptide)
# peptide: Ac-R[Phe(4-NO2)]YRWR-NH2
# SMILES: CC(=O)N[C@@H](CCCNC(=N)N)C(=O)N[C@@H](Cc1ccc([N+](=O)[O-])cc1)C(=O)N[C@@H](Cc1ccc(O)cc1)C(=O)N[C@@H](CCCNC(=N)N)C(=O)N[C@@H](Cc1c[nH]c2ccccc12)C(=O)N[C@@H](CCCNC(=N)N)C(N)=O
# notes: also called Ac-Arg-Phe(NO2)-Tyr-Arg-Trp-Arg-NH2
# B15: VII-39-D (peptide)
# peptide: Ac-R[Tyr(BN,3-Cl)]YRWR-NH2
# notes: also called Ac-Arg-Tyr(BN*, 3-Cl)-Tyr-Arg-Trp-Arg-NH2
# B16: VII-53-B (peptide)
# peptide: Ac-[Ahx]YYRWR-NH2
# SMILES: CC(=O)NCCCCCC(=O)N[C@@H](Cc1ccc(O)cc1)C(=O)N[C@@H](Cc1ccc(O)cc1)C(=O)N[C@@H](CCCNC(=N)N)C(=O)N[C@@H](Cc1c[nH]c2ccccc12)C(=O)N[C@@H](CCCNC(=N)N)C(N)=O
# notes: also called Ac-ε-aminocaproyl-Tyr-Tyr-Arg-Trp-Arg-NH2
# B17: VII-49-B (peptide)
# peptide: Ac-R[hPhe][hPhe]RWR-NH2
# SMILES: CC(=O)N[C@@H](CCCNC(=N)N)C(=O)N[C@@H](CCc1ccccc1)C(=O)N[C@@H](CCc1ccccc1)C(=O)N[C@@H](CCCNC(=N)N)C(=O)N[C@@H](Cc1c[nH]c2ccccc12)C(=O)N[C@@H](CCCNC(=N)N)C(N)=O
# notes: also called Ac-Arg-hPhe-hPhe-Arg-Trp-Arg-NH2
# B18: VII-55-A (peptide)
# peptide: Ac-RYY[Ahx]WR-NH2
# SMILES: CC(=O)N[C@@H](CCCNC(=N)N)C(=O)N[C@@H](Cc1ccc(O)cc1)C(=O)N[C@@H](Cc1ccc(O)cc1)C(=O)NCCCCCC(=O)N[C@@H](Cc1c[nH]c2ccccc12)C(=O)N[C@@H](CCCNC(=N)N)C(N)=O
# notes: also called Ac-Arg-Tyr-Tyr-ε-aminocaproyl-Trp-Arg-NH2
# B19: VII-65-F (peptide)
# peptide: Ac-[Dap]YYRWR-NH2
# SMILES: CC(=O)N[C@@H](CN)C(=O)N[C@@H](Cc1ccc(O)cc1)C(=O)N[C@@H](Cc1ccc(O)cc1)C(=O)N[C@@H](CCCNC(=N)N)C(=O)N[C@@H](Cc1c[nH]c2ccccc12)C(=O)N[C@@H](CCCNC(=N)N)C(N)=O
# notes: also called Ac-Dap-Tyr-Tyr-Arg-Trp-Arg-NH2
# B20: VII-71-B (peptide)
# peptide: Ac-RY[hPhe(2,4-di-NO2)]RWR-NH2
# SMILES: CC(=O)N[C@@H](CCCNC(=N)N)C(=O)N[C@@H](Cc1ccc(O)cc1)C(=O)N[C@@H](CCc1ccc([N+](=O)[O-])cc1[N+](=O)[O-])C(=O)N[C@@H](CCCNC(=N)N)C(=O)N[C@@H](Cc1c[nH]c2ccccc12)C(=O)N[C@@H](CCCNC(=N)N)C(N)=O
# notes: also called Ac-Arg-Tyr-hPhe(2,4-di-NO2)-Arg-Trp-Arg-NH2
# Experiments:
# [1] = target: T1, human ORL-1 receptor (opioid receptor like 1) (human, UniProt P41146 1-370); assay: cell-based or functional assay
# T1 sequence (P41146 whole entry): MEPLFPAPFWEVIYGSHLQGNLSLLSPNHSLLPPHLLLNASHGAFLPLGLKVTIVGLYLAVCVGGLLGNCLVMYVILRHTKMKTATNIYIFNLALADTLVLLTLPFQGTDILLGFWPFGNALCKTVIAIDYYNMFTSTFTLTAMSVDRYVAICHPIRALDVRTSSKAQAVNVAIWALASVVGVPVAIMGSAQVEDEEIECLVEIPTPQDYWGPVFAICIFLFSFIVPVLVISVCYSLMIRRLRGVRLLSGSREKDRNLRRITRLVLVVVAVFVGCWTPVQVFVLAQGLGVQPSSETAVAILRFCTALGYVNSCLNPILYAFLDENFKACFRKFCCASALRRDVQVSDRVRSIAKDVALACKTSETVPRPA
# [2] = target: T1, human ORL-1 receptor (opioid receptor …); assay: [3H]nociceptin displacement, membranes of CHO cells transfected with human ORL-1; Ki=IC50/(1+L/Kd)
# Description: Receptor binding studies were conducted on human ORL1 (opiate receptor like 1) transfected into Chinese hamster ovary (CHO) cells using each of the hexapeptide analog compounds of Table 3. All the compounds were evaluated for binding affinities. […] The data shown in Table 5 represents the average±SEM of at least two experiments conducted in triplicate.
# Cells are removed from the plates by scraping with a rubber policeman, and then homogenized in Tris buffer using a Polytron homogenizer. Following this homogenization step, the cellular mixture is centrifuged once and washed by an additional centrifugation at 40,000×g for 15 min. The pellet formed during the centrifugation is re-suspended in 50 mM Tris, pH 7.5. […] Samples of the suspension are then filtered over glass fiber filters using a Wallac cell harvester.
# For the data in Table 5, binding was conducted as described above. IC₅₀ values and Hill coefficients were determined using the curve-fitting program Prism. K₁ values were calculated using the equation K₁=IC₅₀/(1+[L]/Kd). […] The data in Table 5 represent the average±SEM of at least two experiments conducted in triplicate.
Binder,% Stimulation of [35S]GTPγS binding [1] [%],EC50 (nM) of stimulation of [35S]GTPγS binding [1] [nM],Ki [2] [nM]
B1,43.2,3.2,0.17
B2,52.1,51.1,0.43
B3,< 20,,6.29
B4,37.4,358,41.9
B5,< 20,,1.51
B6,< 20,,26.7
B7,45.5,854,40.6
B8,49.7,29.5,0.15
B9,70.4,2,0.05
B10,54.4,35.7,0.52
B11,52.7,5.2,0.04
B12,< 20,,5.59
B13,49.1,156,0.3
B14,56.6,15.7,0.44
B15,89,0.3,0.03
B16,39.5,167,29.1
B17,< 20,,5.49
B18,26.6,1230,39
B19,13.7,,28.1
B20,33.6,7.5,0.63

# Reference: patent US20030166571A1 (SYNVAX, published 2003)
